B1: C3A_01 (other)
chain: CPPCPAPELLGGPSVFLFPPKPKDTLMISRTPEVTCVVVDVSHEDPEVKFNWYVDGVEVHNAKTKPREEQYNSTYRVVSVLTVLHQDWLDGKEYKCKVSNKALPVPIEKTISKAKGQPREPQVYTLPPSRDELTKNQVSLTCLVKGFYPSDIAVEWESNGQPENNYKTTPPVLDSDGSFFLYSKLTVDKSRWQQGNVFSCSVMHEALHYHYTQKSLSLSPGK
notes: EU numbering
B2: C5A_44 (other)
chain: B1 chain with V105A, N164K
notes: EU numbering
B3: C4A_24 (other)
chain: B1 chain with L84P
notes: EU numbering
B4: C7A_13 (other)
chain: B1 chain with F16L, V39E, D90N, V105A, A153V, N196T
notes: EU numbering
B5: C4A_29 (other)
chain: B1 chain with T82P, V105A, N136S, Q137R
notes: EU numbering
B6: C3A_42 (other)
chain: B1 chain with N164K, V172M
notes: EU numbering
B7: C3A_08 (other)
chain: B1 chain with V39E, D90N, V105A, P127S, A153V, Y209S
notes: EU numbering
B8: C7A_02 (other)
chain: B1 chain with V39E, D90N, V105A, K145R, A153V
notes: EU numbering
B9: C6A_05 (other)
chain: B1 chain with T82A
notes: EU numbering
B10: C7A_27 (other)
chain: B1 chain with V39E, T82N, D90N, V105A, A153V, V172M
notes: EU numbering
B11: C6A_35 (other)
chain: B1 chain with T25A
notes: EU numbering
B12: C5A_03 (other)
chain: B1 chain with V39A, V105A
notes: EU numbering
B13: C7A_18 (other)
chain: B1 chain with V39E, D90N, V105A, A153V, K189R, N196T
notes: EU numbering
B14: C4A_41 (other)
chain: B1 chain with Q137E
notes: EU numbering
B15: C3A_39 (other)
chain: B1 chain with A6V, D90N, V105A, Q117E
notes: EU numbering
B16: C5A_41 (other)
chain: B1 chain with A102T, Q137R
notes: EU numbering
B17: C5A_19 (other)
chain: B1 chain with V39A, V80A
notes: EU numbering
B18: C4A_45 (other)
chain: B1 chain with K21R, H60Y
notes: EU numbering
B19: C5A_50 (other)
chain: B1 chain with D45N, V105A
notes: EU numbering
B20: C4A_32 (other)
chain: B1 chain with V39E, V105A, A153V, Y209N
notes: EU numbering
B21: C3A_15 (other)
chain: B1 chain with V39E, T82A, D90N, V105A, A153V, Y209N
notes: EU numbering
B22: C5A_12 (other)
chain: B1 chain with V105A, Q137E, N164K
notes: EU numbering
B23: C7A_22 (other)
chain: B1 chain with V105A, K109E, A153V
notes: EU numbering
B24: C5A_63 (other)
chain: B1 chain with S73N
notes: EU numbering
B25: C4A_15 (other)
chain: B1 chain with E8D, V105A
notes: EU numbering
B26: C7A_37 (other)
chain: B1 chain with F16L, V105A, N164K
notes: EU numbering
B27: C3A_31 (other)
chain: B1 chain with N164K, D176G
notes: EU numbering
B28: C3A_43 (other)
chain: B1 chain with V105A, R191G
notes: EU numbering
B29: C6A_36 (other)
chain: B1 chain with T82P, V105A, E157G, Q194H
notes: EU numbering
B30: C4A_01 (other)
chain: B1 chain with V105A, Q137R, N164K
notes: EU numbering
B31: C4A_06 (other)
chain: B1 chain with P5T
notes: EU numbering
B32: C3A_21 (other)
chain: B1 chain with S175P
notes: EU numbering
B33: C5A_58 (other)
chain: B1 chain with V39E, D90N, V105A, A153V, P171L, Y209S
notes: EU numbering
B34: C4A_36 (other)
chain: B1 chain with K95T, V105A
notes: EU numbering
B35: C3A_24 (other)
chain: B1 chain with T82P, D90N, V105A, N164T, D176G, N196T
notes: EU numbering
B36: C4A_25 (other)
chain: B1 chain with V172M
notes: EU numbering
B37: C3A_07 (other)
chain: B1 chain with T82P, D90N, V105T, A153V, Y209N
notes: EU numbering
B38: C5A_20 (other)
chain: B1 chain with V105A, S190D
notes: EU numbering
B39: C7A_43 (other)
chain: B1 chain with V39E, T82P, D90N, V105A, A153V, P171S, Y209S
notes: EU numbering
B40: C4A_18 (other)
chain: B1 chain with A153V
notes: EU numbering
B41: C4A_27 (other)
chain: B1 chain with V39A, T74A, D90N, V105A, A153V, E157G
notes: EU numbering
B42: C5A_15 (other)
chain: B1 chain with V78A, E157V
notes: EU numbering
B43: C5A_75 (other)
chain: B1 chain with T82N, V105A
notes: EU numbering
B44: C4A_28 (other)
chain: B1 chain with V39E, D90N, V105A, A153V
notes: EU numbering
B45: C6A_04 (other)
chain: B1 chain with D90N, V105A, Q117R, E157V
notes: EU numbering

Residue numbers refer to the chain shown, from its start.

The first experiment deals with T1, FcRn-p3 fusion protein (human, UniProt P55899 24-297; P61769 21-119).
T1 construct: baculovirus expressed; coated on ELISA wells; not shown: amino terminal part of bacteriophage p3 protein and CVDE protein
T1 sequence (P55899 24-297, chain 1 of 2): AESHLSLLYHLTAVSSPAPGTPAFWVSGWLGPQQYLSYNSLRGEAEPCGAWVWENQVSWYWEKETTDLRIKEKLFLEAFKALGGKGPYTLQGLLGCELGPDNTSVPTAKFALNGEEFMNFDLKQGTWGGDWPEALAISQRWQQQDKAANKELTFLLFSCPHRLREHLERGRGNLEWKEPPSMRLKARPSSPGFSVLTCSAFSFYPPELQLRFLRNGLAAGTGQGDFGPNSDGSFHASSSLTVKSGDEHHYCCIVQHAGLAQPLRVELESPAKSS
T1 sequence (P61769 21-119, chain 2 of 2): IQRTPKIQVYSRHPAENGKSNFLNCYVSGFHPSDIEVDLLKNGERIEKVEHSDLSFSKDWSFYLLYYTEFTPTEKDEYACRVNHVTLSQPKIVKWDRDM
Description: phage ELISA pH6. For orientation: In an ELISA, binding on a coated surface is turned into a signal by an enzyme label.
In the case of B1, the Ratio/Fc-H turned out to be 2.5 fold.
On the same count and under the same terms, the figure for B2 is 2.7 fold; for B3 it is 2.3 fold; for B4 it is 2.3 fold.
For B5, the Ratio/Fc-H amounted to 3.8 fold.
Same read-out and setting: the value for B6 was 3.7 fold; that for B7 was 3 fold.
The same measure, in the same setting: the figure for B8 is 2.2 fold.
Same read-out and setting: the figure for B9 is 1.9 fold; for B10 it is 2.6 fold; for B11 it is 1.8 fold.
As to B12, the Ratio/Fc-H worked out at 2.7 fold.
Same read-out and setting: the value for B13 was 2.8 fold.
B14: the Ratio/Fc-H is 3.4 fold.
With B15, the Ratio/Fc-H stood at 1.8 fold.
Regarding B16, the Ratio/Fc-H came to 1.3 fold.
On the same count and under the same terms, the value for B17 was 2.9 fold; that for B18 was 2.3 fold.
The same measure, in the same setting: the value for B19 was 2.3 fold; that for B20 was 1.7 fold; that for B21 was 1.9 fold.
Still for that read-out and setting: the value for B22 was 3.8 fold; that for B23 was 1.8 fold.
In the case of B24, the Ratio/Fc-H worked out at 2 fold.
Still for that read-out and setting: the figure for B25 is 2.2 fold.
Still for that read-out and setting: the figure for B26 is 2.2 fold.
Same read-out and setting: the value for B27 was 2.2 fold.
As to B28, the Ratio/Fc-H amounted to 2.5 fold.
Same read-out and setting: the figure for B29 is 3.4 fold; for B30 it is 2.4 fold.
The same measure, in the same setting: the figure for B31 is 3.6 fold; for B32 it is 3 fold; for B33 it is 2.8 fold.
Same read-out and setting: the value for B34 was 2.8 fold; that for B35 was 2.9 fold.
On to B36, for which the Ratio/Fc-H is 2.8 fold.
Turning to B37, the Ratio/Fc-H came out at 1.3 fold.
B38: the Ratio/Fc-H was determined as 2.6 fold.
Still for that read-out and setting: the value for B39 was 3.6 fold.
The same measure, in the same setting: the figure for B40 is 2.5 fold.
The same measure, in the same setting: the value for B41 was 2.7 fold; that for B42 was 3.4 fold.
Regarding B43, the Ratio/Fc-H was determined as 2.8 fold.
Still for that read-out and setting: the value for B44 was 3.4 fold; that for B45 was 2.9 fold.

For another experiment, the target named is T1, FcRn-p3 fusion protein. Put plainly: phage ELISA pH6 (est.).
Regarding B1, the Ratio/FWT is 8 fold.
The same measure, in the same setting: the figure for B2 is 8.7 fold; for B3 it is 7.5 fold.
On the same count and under the same terms, the value for B4 was 7.4 fold; that for B5 was 12 fold.
Consider B6, for which the Ratio/FWT was 12 fold.
As for B7, the Ratio/FWT turned out to be 9.7 fold.
The same measure, in the same setting: the figure for B8 is 6.9 fold; for B9 it is 6.2 fold; for B10 it is 8.2 fold.
For B11, the Ratio/FWT is 5.7 fold.
Still for that read-out and setting: the figure for B12 is 8.7 fold.
Still for that read-out and setting: the figure for B13 is 8.9 fold; for B14 it is 10.8 fold; for B15 it is 5.6 fold.
The same measure, in the same setting: the figure for B16 is 4.3 fold; for B17 it is 9.3 fold.
Regarding B18, the Ratio/FWT turned out to be 7.2 fold.
The same measure, in the same setting: the figure for B19 is 7.3 fold; for B20 it is 5.4 fold; for B21 it is 6 fold.
Still for that read-out and setting: the value for B22 was 12.1 fold.
Same read-out and setting: the value for B23 was 5.7 fold; that for B24 was 6.3 fold; that for B25 was 6.9 fold.
Consider B26, for which the Ratio/FWT was determined as 6.9 fold.
On the same count and under the same terms, the figure for B27 is 6.9 fold; for B28 it is 8.1 fold.
For the molecule B29, the Ratio/FWT stood at 10.9 fold.
B30: the Ratio/FWT amounted to 7.5 fold.
Still for that read-out and setting: the value for B31 was 11.4 fold; that for B32 was 9.8 fold; that for B33 was 9.1 fold.
Same read-out and setting: the figure for B34 is 8.9 fold; for B35 it is 9.2 fold.
On the same count and under the same terms, the figure for B36 is 8.9 fold; for B37 it is 4.2 fold; for B38 it is 8.4 fold.
On to B39, for which the Ratio/FWT turned out to be 11.5 fold.
Same read-out and setting: the figure for B40 is 8.1 fold; for B41 it is 8.7 fold; for B42 it is 10.9 fold.
The same measure, in the same setting: the figure for B43 is 8.9 fold; for B44 it is 10.8 fold.
On the same count and under the same terms, the value for B45 was 9.4 fold.

These data come from USRE46585 (LABORATOIRE FRANCAIS DU FRACTIONNEMENT ET DES …, dated 2017).
